Measurements as given in the MegaScale stability set (Tsuboyama et al. 2023).

B1: EEHEE_rd4_0469 (parent)
chain: ITIHVNGVTYHFDNPEEAEKFAQKMAKTYQLKMEIHNGEFHME

Variants of: B1
Assay: folding stability dG (cDNA display proteolysis); higher = more stable
Settings: PBS, room temperature

Question: Which “folding stability dG” value does the source give for E39S here?
Answer: 0.882 kcal/mol

Question: Which “folding stability dG” value does the source give for E39R here?
Answer: 0.762 kcal/mol

Question: Which “folding stability dG” value does the source give for E39P here?
Answer: 0.802 kcal/mol

Question: Which “folding stability dG” value does the source give for E39V here?
Answer: 1.07 kcal/mol

Question: Which “folding stability dG” value does the source give for E39Y here?
Answer: 0.934 kcal/mol

Question: Which “folding stability dG” value does the source give for E39W here?
Answer: 0.978 kcal/mol

Question: For E39M, which “folding stability dG” value is on record?
Answer: 0.924 kcal/mol

Question: For E39I, which “folding stability dG” value is on record?
Answer: 1.17 kcal/mol

Question: Which “folding stability dG” value does the source give for E39N here?
Answer: 0.81 kcal/mol

Question: With E39T as the variant, how does the “folding stability dG” value read?
Answer: 0.836 kcal/mol

Question: With E39Q as the variant, how does the “folding stability dG” value read?
Answer: 1.11 kcal/mol

Question: With E39L as the variant, how does the “folding stability dG” value read?
Answer: 0.728 kcal/mol

Question: With E39K as the variant, how does the “folding stability dG” value read?
Answer: 0.828 kcal/mol

Question: For H41F, which “folding stability dG” value is on record?
Answer: 1.55 kcal/mol

Question: Which “folding stability dG” value does the source give for H41Y here?
Answer: 1.69 kcal/mol

Question: For H41K, which “folding stability dG” value is on record?
Answer: 0.756 kcal/mol

Question: For H41G, which “folding stability dG” value is on record?
Answer: 0.628 kcal/mol

Question: Which “folding stability dG” value does the source give for H41E here?
Answer: 0.697 kcal/mol

Question: With H41R as the variant, how does the “folding stability dG” value read?
Answer: 0.848 kcal/mol

Question: For H41I, which “folding stability dG” value is on record?
Answer: 1.08 kcal/mol

Question: Which “folding stability dG” value does the source give for H41C here?
Answer: 1.72 kcal/mol

Question: With H41D as the variant, how does the “folding stability dG” value read?
Answer: 0.697 kcal/mol

Question: Which “folding stability dG” value does the source give for H41T here?
Answer: 0.857 kcal/mol

Question: For H41A, which “folding stability dG” value is on record?
Answer: 0.623 kcal/mol

Question: Which “folding stability dG” value does the source give for H41V here?
Answer: 1.11 kcal/mol

Question: Which “folding stability dG” value does the source give for H41L here?
Answer: 0.929 kcal/mol

Question: Which “folding stability dG” value does the source give for H41N here?
Answer: 0.659 kcal/mol

Question: For H41Q, which “folding stability dG” value is on record?
Answer: 0.682 kcal/mol

Question: Which “folding stability dG” value does the source give for H41P here?
Answer: 0.588 kcal/mol

Question: Which “folding stability dG” value does the source give for H41W here?
Answer: 1.57 kcal/mol

Question: For H41M, which “folding stability dG” value is on record?
Answer: 0.892 kcal/mol

Question: Which “folding stability dG” value does the source give for H41S here?
Answer: 0.86 kcal/mol

Question: With F40Y as the variant, how does the “folding stability dG” value read?
Answer: 1.31 kcal/mol

Question: For F40T, which “folding stability dG” value is on record?
Answer: 0.801 kcal/mol

Question: Which “folding stability dG” value does the source give for F40K here?
Answer: 0.661 kcal/mol

Question: With F40M as the variant, how does the “folding stability dG” value read?
Answer: 1.23 kcal/mol

Question: For F40S, which “folding stability dG” value is on record?
Answer: 0.704 kcal/mol

Question: Which “folding stability dG” value does the source give for F40N here?
Answer: 0.711 kcal/mol

Question: Which “folding stability dG” value does the source give for F40I here?
Answer: 1.6 kcal/mol

Question: With F40Q as the variant, how does the “folding stability dG” value read?
Answer: 0.754 kcal/mol

Question: With F40P as the variant, how does the “folding stability dG” value read?
Answer: 0.69 kcal/mol

Question: For F40C, which “folding stability dG” value is on record?
Answer: 1.79 kcal/mol

Question: Which “folding stability dG” value does the source give for F40L here?
Answer: 1.37 kcal/mol

Question: Which “folding stability dG” value does the source give for F40V here?
Answer: 1.19 kcal/mol

Question: Which “folding stability dG” value does the source give for F40D here?
Answer: 0.578 kcal/mol

Question: Which “folding stability dG” value does the source give for F40H here?
Answer: 0.761 kcal/mol

Question: With F40G as the variant, how does the “folding stability dG” value read?
Answer: 0.641 kcal/mol

Question: For F40E, which “folding stability dG” value is on record?
Answer: 0.603 kcal/mol

Question: For F40A, which “folding stability dG” value is on record?
Answer: 0.744 kcal/mol

Question: Which “folding stability dG” value does the source give for F40W here?
Answer: 1.76 kcal/mol

Question: With F40R as the variant, how does the “folding stability dG” value read?
Answer: 0.623 kcal/mol

Question: With M42S as the variant, how does the “folding stability dG” value read?
Answer: 0.715 kcal/mol

Question: With M42T as the variant, how does the “folding stability dG” value read?
Answer: 0.657 kcal/mol

Question: For M42L, which “folding stability dG” value is on record?
Answer: 1.3 kcal/mol

Question: For M42E, which “folding stability dG” value is on record?
Answer: 0.615 kcal/mol

Question: With M42W as the variant, how does the “folding stability dG” value read?
Answer: 0.913 kcal/mol

Question: Which “folding stability dG” value does the source give for M42V here?
Answer: 0.797 kcal/mol

Question: For M42N, which “folding stability dG” value is on record?
Answer: 0.637 kcal/mol

Question: Which “folding stability dG” value does the source give for M42G here?
Answer: 0.673 kcal/mol

Question: For M42Y, which “folding stability dG” value is on record?
Answer: 1.02 kcal/mol

Question: With M42I as the variant, how does the “folding stability dG” value read?
Answer: 0.961 kcal/mol

Question: For M42K, which “folding stability dG” value is on record?
Answer: 0.711 kcal/mol

Question: Which “folding stability dG” value does the source give for M42D here?
Answer: 0.727 kcal/mol

Question: Which “folding stability dG” value does the source give for M42Q here?
Answer: 0.661 kcal/mol

Question: For M42R, which “folding stability dG” value is on record?
Answer: 0.687 kcal/mol

Question: With M42H as the variant, how does the “folding stability dG” value read?
Answer: 0.709 kcal/mol

Question: For M42F, which “folding stability dG” value is on record?
Answer: 1.24 kcal/mol

Question: For M42A, which “folding stability dG” value is on record?
Answer: 0.838 kcal/mol

Question: For M42P, which “folding stability dG” value is on record?
Answer: 0.756 kcal/mol

Question: With E43H as the variant, how does the “folding stability dG” value read?
Answer: 1.46 kcal/mol

Question: Which “folding stability dG” value does the source give for E43V here?
Answer: 2.36 kcal/mol

Question: With E43K as the variant, how does the “folding stability dG” value read?
Answer: 1.5 kcal/mol

Question: With E43C as the variant, how does the “folding stability dG” value read?
Answer: 2.31 kcal/mol

Question: Which “folding stability dG” value does the source give for E43W here?
Answer: 1.82 kcal/mol

Question: For E43S, which “folding stability dG” value is on record?
Answer: 1.34 kcal/mol

Question: With E43G as the variant, how does the “folding stability dG” value read?
Answer: 1.14 kcal/mol

Question: Which “folding stability dG” value does the source give for E43P here?
Answer: 0.817 kcal/mol

Question: Which “folding stability dG” value does the source give for E43I here?
Answer: 2.02 kcal/mol

Question: Which “folding stability dG” value does the source give for E43R here?
Answer: 1.56 kcal/mol

Question: For E43D, which “folding stability dG” value is on record?
Answer: 0.889 kcal/mol

Question: For E43A, which “folding stability dG” value is on record?
Answer: 1.2 kcal/mol

Question: For E43M, which “folding stability dG” value is on record?
Answer: 1.69 kcal/mol

Question: Which “folding stability dG” value does the source give for E43L here?
Answer: 1.61 kcal/mol

Question: Which “folding stability dG” value does the source give for E43F here?
Answer: 2.01 kcal/mol

Question: For E43N, which “folding stability dG” value is on record?
Answer: 1.17 kcal/mol

Question: With E43Y as the variant, how does the “folding stability dG” value read?
Answer: 1.94 kcal/mol

Question: For E43T, which “folding stability dG” value is on record?
Answer: 1.72 kcal/mol

Question: With E43Q as the variant, how does the “folding stability dG” value read?
Answer: 1.21 kcal/mol
